Results reported in publication PMC6868158.

What was measured:
[1] = test system: tTALE-eGFP (truncated TALE, 7-mer TGTCTGT repeat domain, fused to eGFP) (artificial construct (from TALEN plasmid RHD_Exon4_TALEN_L)); test: FRET; details: FRET: TE pH 8.0, 100 nM dsDNA, 10-100 nM tTALE-eGFP for Kd; NaCl series 0-200 mM at 30 nM protein; excitation 488 nm, emission 631 nm; temperature not stated
[2] = test system: tTALE-eGFP (truncated TALE, 7-mer TGTCTGT repeat domain, fused to eGFP) (artificial construct (from TALEN plasmid RHD_Exon4_TALEN_L)); test: single-molecule fluorescence (surface-immobilized DNA in flow cell); details: FRET: TE pH 8.0, 100 nM dsDNA, 10-100 nM tTALE-eGFP for Kd; NaCl series 0-200 mM at 30 nM protein; excitation 488 nm, emission 631 nm; temperature not stated

Work on TGTCTGTATG (double strand) [target DNA] yielded a Kd [1] of 26.7 nM.

lambda DNA gave a K half [2] of 22 nM.
